Our source for the Km values is paper PMC9105384, “Ethyl Gallate Dual-Targeting PTPN6 and PPARγ Shows Anti-Diabetic and Anti-Obese Effects” (International Journal of Molecular Sciences, 2022).

What is called Km is the substrate concentration at which the rate is half of its maximum.

The data set relates to T1, Cc1cc(=O)oc2c(F)c(OP(=O)(O)O)c(F)cc12.
T1 construct: Full-length human PTPN6 with an N-terminal hexahistidine (His6) tag
Kind of data set: Michaelis-Menten kinetics, fluorescence (Km). The class given is biochemical, Homo sapiens.

For the substance PTPN6 (Homo sapiens), the Km was found to be 86.26 µM.
